Results taken from a protein production outcome set (Wang et al. 2014).

Experiment: label from the status in PepcDB records
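Also: failed if final PepcDB status was selected cloned or expressed and not failed if soluble or beyond.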

Row | Sequence | protein production
1 | MSPSDSSGDSDDPARSRAAVRRTYEDIGDHFSKTREYAWPEVESFVDESGSVGTALDAGCGNGRHAELLAGVADRVVGLDASRALLRAATDRVGDSVALLQGDATRLPLAAGAVDLAVYVATLHHLPSQTARRASLDELARVLAPGARALVSAWSTAHDHFDADPDADEGFDTTVDWTLPGGETVPRFYHIYAPAEFERDVADSDLRLVSMELSSGNCYGVVEPEGKRT | failed
2 | MTRVQANMLLLLAAAIWGGGFVAQSSAMSSIGPFWFVGLRFAIAAIAVLPFALMETRSLKSPPRRREIGSFILVGLALFGGATTQQVGLLTTTVTNSSFLTGLYVIFVPVIAVVLYRRHPHWVVWPCALMMLGGIFLLSGGAFETLTTGDILSIICAFFWAIQITLAGRFVSESGRPLALSFTQFAVCSLLSCMIGVVFEPISMAAIEASMMEILYVGLVSSGLAFVLQVIGQRYTTAPQAAIFLSSEALFGALMASIFLKETISSAGYVGCLIIFVAILIVELVPELTRKRQKTVAEAS | failed
3 | MRTTHSPATAAGRTLGRVLKAVLSLLVLAAAVAGLPLLLAWVTPAIWASSHDDLTHLLDRQDTGAAFLLLLVAVGWIGWAQFAFCAVRELIAQVGGRSWQAPRRLGASQRAAALLVGSILVLLPTSSALASDAHASPATTEARVPGQAPAPQTAEPDQTLPDSASTPASRTSYTVRATRPAQSLWGIAERELGDGERWREIAALNEGRTMVDGQVFRAHGFLQPGWQLEMPDTAAAAGGIRTQLGRAAPTAEGKNEHVVTVHSGDYLSKIAEEELGDGGEWPRLFKASRGKTQPDGLPAISDPDVIYAGQQVTVPGAQPDPHTPPRDGDNGDEAGSQETTPPATQKPDGKQKPGDDRRDEQAPAPGTTTAPAPESSAPSTPASRPAEQPGQEQGSPSATASATPRPGTSPAPSAAAPSATAEAPGSADSSPATTASETPPPAPAPAPASSPLNLRTVLGAGTLLAAAITGALALRRTLQRRRRTPGEKIAIASETSPAEAKLAAAAEPGGAARLDVALRTLAHQVAHEKAADLPPIRAARIGTRTVEVLPEGLARKPQAPFVAGQAGWWVLPAEAVLLDEETAREVPAPYPGLVTIGSTESGDLLLLNLPQVAALLLDGNPVHITEVCTSLALELGMSPWASEAEIVTIGFGEDLPQLLPTSRIAHMRHARHALRDLSERLLEAHQMPETSHQPYLLLCASTLDADLAWQFADIIDKAQHVPVTLIAPASAAAASFPDAEILNASLSKPQQFDYIGSEITVQRLEHAAYLQITTALAISAQPADPAEGPWEEVPHEPDTPQRPRPLDLAKPTQSGDGEKPVPASPFTAGTGDSEIYPALLAASTDPASLKLLPDPKAPGKAPAEPGTEPAEMTPDGRAPQKAAEATGRPQETPAAEAVGEDTQAQDLHAPEIRVLGPVEVTGVATTGHGPSQARLAALLYFRPGRSADVLCADMDPVSPWSTATLNARLQGLRRALGNDPAGNAYVPRRRSGDDPYELSEAVRCDWARFTQLAQRALPQGTAGLPDLEKALGLIRGRPFGTRPLPWAEPYQQEMSTRIIDVAHTVATYRTPTGPHHDLTAARQAIATGLDVDDSAELLYRDWMRIEHAAGNRAGLHTAITRIQDINRKIDCSLENETEQLINDLLGPTGGRARGR | failed
4 | MYSYADRLRAVELYIRLGKRLNTTIRQLGYPTKNALRGWYREYVQHLDLRTQPVARAPKYSEAQRQAALEHFRTHDRCISGTMRALGYPGRGTLTAWVREAFPEARTSMVGRSWHPGYSEEVRQAGVIGLCSGDESAQQVADRLGVSRPTLYSWKDQLLGHEASSSMKRRKANPKVPEREELERKLEALQRDVRQLQLEHDLLKKANELLKKGLGVDLLILSNREKTQLIDALKEVYRLPELLAQLRIARSSYFYHRARMCLADKYAAVRLSLAEIFEANRRCYGYRRLQASLARKSVIVSEKVVQRLMKQEHLAVARPRRRRFGSYLGEISPAPENLINRDFHADAPNVKWLTDITEFQIPAGKVYLSPIIDCFDGMVISWSIGTQPDAGLVNTMLDAAIGTVANGEERPIIHSDRGAHYRWPGWLTRISEARLVRSMSRKGCSQDNAACEGFFGRLKTELFYPRDWKAITIEQFVAEVDAYIRWYNEKRIKISLGSLSPVEYRQSLGLKLLEHHHHHH | not failed
5 | MEEKQILCVGLVVLDVISLVDKYPKEDSEIRCLSQRWQRGGNASNSCTILSLLGAPCAFMGSMAPGHVADFVLDDLRRYSVDLRYTVFQTTGSVPIATVIINEASGSRTILYYDRSLPDVSATDFEKVDLTQFKWIHIEGRNASEQVKMLQRIDAHNTRQPPEQKIRVSVEVEKPREELFQLFGYGDVVFVSKDVAKHLGFQSAEEALRGLYGRVRKGAVLVCAWAEEGADALGPDGKLLHSDAFPPPRVVDTLGAGDTFNASVIFSLSQGRSVQEALRFGCQVAGKKCGLQGFDGIV | failed
6 | MSKLEFLAFYDELTGLPNKNSLIRWLNLKVSQMDCIDTYLIFLEVRDLEKLNVTYGYDLVDELIIHISKRIKDIAGEGNKAFKIGFDRFAIICKSENISDFIERMLSQLLLPYNVNGNLIRVNFNIGAAQIENSNEAAANLMRRCDLALIKAKEEGLNEYVIFKPSIEIQTLEHHHHHH | not failed
7 | MAPDLSGTWYVLEGDPGEHLVVEALGERLSGIWTSRELAEAFLAHHPHLGMRVSALESRALKEAYLRALGMLQVEAVMVDYRPGTHRAQVARVKDLLEEVRRA | not failed
8 | MNASTSPLPASDQTLRGILLICAAVFLFASHDGLSKFLSGFYPIVMVVWARYLVHTLLMVAVFVPRNGLAVIRSRRPLMQLARALCLIGTSLFFTTGLRYLPLAEATAVNFLAPLLVTALSVPLLKEKVSLGQWLAVLTGFIGVLFIVRPGGALFTPAALFPLGSALCFGLYQLLTRMLANSDSPTTSNFLAGIFNTLIMSLLVPFFWQTPSLLHGLMMIALGGCGMGGHLLLTQAFRHAPPATLAPFSYGQIIFAGLLGLLVFGHVPDAWALLGILVICASGLVVAWRRGR | failed
9 | MSDRSSLFDVRSSTSVTLDQVVRRDTVEIPDEAALAMPVQPLSFWQGGARRATALTQDMNLRRWMLGLMTIAMGVAGWKASFDTIALGGVTRLEAVVLTLLAPLFLALSLWFCTALIGFVVLMGRPKDPLGIDSEAPMPKLHTRTAILMPVYNEDAAAVFARLRAMDASIAETGSARNFDIFVISDTRDAQVALAEQACFARFRREANCNVYYRIRKENTGRKAGNVADWVSRWGSAYEHMLVLDADSLMTGEAMVRLADAMERHPGAGLIQTMPMIINGQTIFARTLQFATRLYGRVAWTGLAWWSGSESSFWGHNAIVRTRAFAETCGLPHLPGPKPFGGEVMSHDALESALLRRGGWSVHLAPYLDGSYEESPSNLLDFATRDRRWCRGNIQHVPLIALPGLHWMSRMHLVIGVLSYALSPLWFFCLSAGLISRALMPELKKAAFTMADLKAAAHALIDWSEIQATAWAMIITFVLLFGPKILGAILVLARKGEVKGFGGKRRMAAGLGVEMLLSALVAPMLMFTQTRAIVEILAGKVGGWAAQRRDADKVDFKEAWAAMGWISLSGLILAASFWFTPDLLTATAPILAGLVLAVPLTMLGAHKVAGLKLKANGLFMTPEERRPPAIVRAAVGAACEPPIRWFARNGRPIGPTTKIRDAA | failed
10 | MTQQLFTLFAVFISLFLFGMAVMRAGLLTMNAEKARVGILRFVDNPLKGFFVGLLLTILLQSSSAVMIVTIGFVAAGYVTFRQSIGIILGTNVGTCFTVELIALDLHSLIVPLLLIGLIGLAIPHLITYCLGCVSFGLACIFISMNGLENLASPLAAIPAIQAFIELTNDWLIVGAGVGTLLTALIQSSTATTAIAMGFLNEEIIGIHGGIAIMLGANIGTCFTALLASIGSGRTSRLVAFAHLWLNVIGVLLFIPLIPHLSHFVMTLTTIPAIQLAHASTIFNVICSLAILPFVKPFASFIETLHGPSQ | failed
11 | MTVVVEFLGTGGAHSEDLGSSSARISLPNSQNMLIDFGPDTYFSVNTRKLQFDAIFITHAHLDHVGGLERLFFSVAFKKQRLIKLYVPVSLVTRLHQIFGMAGSQVAEGGKNFWDCFQLIPITDYFYFSGYRFNVFPVRHHFPGEAFGLALPGCFVYTGDTRPIPEQLVAHAGRGELIFHDATTSSNPAHSALDDLKREYALHDVLDRLVLYHFDSAVERELAETQGWKTVRLGVTYQFGCRHVCSGSMCSNAELSSLGTNKALHNERGTKLPRPSIKKDEFV | failed
12 | MAAKTRTFRAAADAWLKAKEEKGLAPSTLNKIRTYLDKDILPALGDKPLDEITRTDCAELQASIEARDAHNVAEKCRTWINQIFGRAIGLGLTENDPGSRLRDIAAQAPKTQLEHHHHHH | failed
13 | MIIRIKHYGEVKIEDSKNLLLNLIENRIGIDNICNGKGTCGKCKVRFRQGVPEATSADLRYLSVEELEEGVRLACQVKPQKGMEIDVTLSNSFDRKNTVLEHHHHHH | failed
14 | MQEIQRFNKVLKSCVLFGDIILLNSLLWGFELVLGSRFYSGNLTSLYQGMVLLSLCYLVCNIQSGVILHHPVVRPEQIMIRVLRNMVPFILFSICFLSLFHFEFFRSRLFGLFYVALLIILICYRLAFRYFLELYREKGGNVRMVVLVGSHENMQELYHSMTDDPTSGYRVMGYFEDSPSDYYPEEVAYLGQPKEAIEYLERNSGKIAQLYCSLPSVRSAEIVPIINYCENHLVRFFSVPNVRNYLKRRMYFDLLGNVPVLSIRREPLELRENRVLKRFFDIIFSLIFLCTIFPFVYIIIGIAIKISSPGPIFFKQKRSGEDGREFWCYKFRSMRVNAQCDVLQATANDPRKTRIGEFIRKTSIDELPQFINVLMGDMSVVGPRPHMLKHTEEYAQVINKFMVRHFVKPGITGWAQVTGYRGETKELWQMEGRVSRDIWYIEHWTFMLDLYIIYKTVYNAIHGEKEAY | failed
15 | MRLKDLGERALLARLAPLGYPPEAPLPPGDDAGGVWAEGRAWLLKTDGFLYREVALKGMGPFEVGFRGVAATASDLLAKMGRPLGFTLGLFLPEDLEEGFVLELVRGAAEAAKRLGAFLLGGDTNRGVEVALTVSGYALAEAPLPRKALPGDLLYLAGDRWGRTGAAIRAHYEGRSLEGFPKIREAAFYPLPRLELLALSGLLRGSLDSSDGLAETLWQLADLGVGVEVEALPLYPDVLAFAGSEEAALELVLYGGEEFEAVLVVPQEGAAAVEARAKAKGLPLFRAGRVVAGEGVYLRGAPLPRKGYAHF | not failed
16 | MGLQGQLSDVSSDSIPLMLLSLLAVFINHLRSFLLRLTSKSNPNLPVDDVSIASGLANIIVLADQLSLNRLFSYRCGDGGGGGSDCVVCLSKLKEGEEVRKLECRHVFHKKCLEGWLHQFNFTCPLCRSALVSDDCVSKTQRSVGRDLISCFSLH | failed
17 | MSLDSDVIVDRRRMRRKLTFWRVAAVLVAIVAVVAIGAMVSPAGRGALTSTGSIARIKIEGLIRSNDERVQALDRLGKSSYSAVIVHINSPGGTTAGSEELHDALARLKAKKPMVVVVEGLAASGGYIAALASEHIVAQQTSLVGSIGVLFQYPNVSELLKTVGVKVEEVKSSPLKAAPNGFEPTSPEARAAIEALVKDSYAWFRGMVQQSRKMTDDQLNVVADGRVFTGRQAVGLKLIDELGDERTAIAWLEKAKNVKAGLPVRDYKLAPQFGDLTFLRAAASVAFDAAGLGVIARRVEQTGAMQSVERLGLDGMLALWAPSAGQ | failed
18 | MKLGKTLAISCISMLSLSIWTQQVSAASAFDPSSEWMLGDWNGERTALKQKGYDFSIGYTGEMATVLDSKDTSRHGTEYAGQVALGTHFDLNKILGWQDTEAQITLTHRDGHDIKNKAAALEGQLSSTQEVYGRGQTTRLTDLWIKKKFFDQALDIKVGRFGESEDFNPAACDFQNLALCGDQMGNWNAGDQIHNWPVSQWAARVKYNVTPEVFAQVGVYEYNPENLKRSKGFNLSTDGSKGAVIPVEVVWQPKSGLINGLAGEYRAGYYYSTADANEINSTNKDHGQGGWLSFIQQLTAVNGDTSRGLKVVGQATFFDEATSRVKNTQSLAFAYKGLVDTRPKDELAIGFSRINLNDDAYLGKDVDSEYNSEIYYGIEATNWLTVRPNVQYVRHVGALKDGNNAWVGGIKFQTVF | failed
